Paper PMC10713552 (Communications Biology, 2023)

B1: 0304-IN3_T65G (antibody, V domains shown)
VH: QVQLQQWGPGLVNPSETLSLTCSVSGGSFATENYYWSWIRQHPGEGLEWIGNIYFSGNGYYNPSLNNRFTISFDTSKNHLSLKLPSVTAADTAVYYCARGTIYFDISGYRRVDPFHIWGQGTMVIVSS
VL: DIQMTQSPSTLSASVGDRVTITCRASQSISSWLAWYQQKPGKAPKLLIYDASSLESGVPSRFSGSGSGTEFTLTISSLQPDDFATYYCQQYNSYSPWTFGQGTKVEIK
notes: source: Expi293F, transfected
B2: 0368-N3_T65P (antibody, V domains shown)
VH: QVQLQQWGPGLVNPSETLSLTCSVSGGSFATENYYWSWIRQHPGEGLEWIGNIYFSGNPYYNPSLNNRFTISFDTSKNHLSLKLPSVTAADTAVYYCARGTIYFDRSGYRRVDPFHIWGQGTMVIVSS
VL: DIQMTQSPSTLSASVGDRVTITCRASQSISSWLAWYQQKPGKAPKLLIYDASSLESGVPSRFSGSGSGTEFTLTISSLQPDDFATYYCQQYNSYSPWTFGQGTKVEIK
notes: source: Expi293F, transfected
B3: 0361-N3_T65G (antibody, V domains shown)
VH: QVQLQQWGPGLVNPSETLSLTCSVSGGSFATENYYWSWIRQHPGEGLEWIGNIYFSGNGYYNPSLNNRFTISFDTSKNHLSLKLPSVTAADTAVYYCARGTIYFDRSGYRRVDPFHIWGQGTMVIVSS
VL: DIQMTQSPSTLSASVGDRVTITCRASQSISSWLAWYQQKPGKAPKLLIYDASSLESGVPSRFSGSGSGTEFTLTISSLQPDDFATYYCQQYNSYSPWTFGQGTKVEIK
notes: source: Expi293F, transfected
B4: 0343-MN3_T65H (antibody, V domains shown)
VH: QVQLQQWGPGLVNPSETLSLTCSVSGGSFATENYYWSWIRQHPGEGLEWIGNIYFSGNHYYNPSLNNRFTISFDTSKNHLSLKLPSVTAADTAVYYCARGTIYFDMSGYRRVDPFHIWGQGTMVIVSS
VL: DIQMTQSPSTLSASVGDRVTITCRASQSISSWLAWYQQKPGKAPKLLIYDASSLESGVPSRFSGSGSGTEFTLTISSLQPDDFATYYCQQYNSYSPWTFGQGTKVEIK
notes: source: Expi293F, transfected
B5: 0328-LN3_T65M (antibody, V domains shown)
VH: QVQLQQWGPGLVNPSETLSLTCSVSGGSFATENYYWSWIRQHPGEGLEWIGNIYFSGNMYYNPSLNNRFTISFDTSKNHLSLKLPSVTAADTAVYYCARGTIYFDLSGYRRVDPFHIWGQGTMVIVSS
VL: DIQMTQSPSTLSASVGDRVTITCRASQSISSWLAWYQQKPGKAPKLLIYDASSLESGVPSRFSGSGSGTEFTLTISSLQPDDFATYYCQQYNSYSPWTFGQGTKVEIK
notes: source: Expi293F, transfected
B6: 0365-N3_T65L (antibody, V domains shown)
VH: QVQLQQWGPGLVNPSETLSLTCSVSGGSFATENYYWSWIRQHPGEGLEWIGNIYFSGNLYYNPSLNNRFTISFDTSKNHLSLKLPSVTAADTAVYYCARGTIYFDRSGYRRVDPFHIWGQGTMVIVSS
VL: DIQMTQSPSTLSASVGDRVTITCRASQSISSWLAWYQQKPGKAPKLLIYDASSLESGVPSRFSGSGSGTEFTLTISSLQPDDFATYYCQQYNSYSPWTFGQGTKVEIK
notes: source: Expi293F, transfected
B7: 0357-N3_T65A (antibody, V domains shown)
VH: QVQLQQWGPGLVNPSETLSLTCSVSGGSFATENYYWSWIRQHPGEGLEWIGNIYFSGNAYYNPSLNNRFTISFDTSKNHLSLKLPSVTAADTAVYYCARGTIYFDRSGYRRVDPFHIWGQGTMVIVSS
VL: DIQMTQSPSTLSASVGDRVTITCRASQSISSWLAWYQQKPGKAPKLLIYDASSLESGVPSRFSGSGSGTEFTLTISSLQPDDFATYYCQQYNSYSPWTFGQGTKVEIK
notes: source: Expi293F, transfected
B8: 0384-YN3_T65L (antibody, V domains shown)
VH: QVQLQQWGPGLVNPSETLSLTCSVSGGSFATENYYWSWIRQHPGEGLEWIGNIYFSGNLYYNPSLNNRFTISFDTSKNHLSLKLPSVTAADTAVYYCARGTIYFDYSGYRRVDPFHIWGQGTMVIVSS
VL: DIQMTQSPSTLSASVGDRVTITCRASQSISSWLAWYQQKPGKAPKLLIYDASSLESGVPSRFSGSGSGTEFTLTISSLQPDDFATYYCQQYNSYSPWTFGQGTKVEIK
notes: source: Expi293F, transfected
B9: 0375-N3_T65Y (antibody, V domains shown)
VH: QVQLQQWGPGLVNPSETLSLTCSVSGGSFATENYYWSWIRQHPGEGLEWIGNIYFSGNYYYNPSLNNRFTISFDTSKNHLSLKLPSVTAADTAVYYCARGTIYFDRSGYRRVDPFHIWGQGTMVIVSS
VL: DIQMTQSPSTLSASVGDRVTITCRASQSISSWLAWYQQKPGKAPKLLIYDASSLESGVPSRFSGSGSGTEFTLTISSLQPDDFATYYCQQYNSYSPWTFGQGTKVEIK
notes: source: Expi293F, transfected
B10: 0320-LN3_T65D (antibody, V domains shown)
VH: QVQLQQWGPGLVNPSETLSLTCSVSGGSFATENYYWSWIRQHPGEGLEWIGNIYFSGNDYYNPSLNNRFTISFDTSKNHLSLKLPSVTAADTAVYYCARGTIYFDLSGYRRVDPFHIWGQGTMVIVSS
VL: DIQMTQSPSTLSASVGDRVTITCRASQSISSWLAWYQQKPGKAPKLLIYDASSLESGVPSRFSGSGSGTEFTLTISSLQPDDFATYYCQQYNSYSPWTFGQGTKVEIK
notes: source: Expi293F, transfected
B11: 0393-YN3_T65W (antibody, V domains shown)
VH: QVQLQQWGPGLVNPSETLSLTCSVSGGSFATENYYWSWIRQHPGEGLEWIGNIYFSGNWYYNPSLNNRFTISFDTSKNHLSLKLPSVTAADTAVYYCARGTIYFDYSGYRRVDPFHIWGQGTMVIVSS
VL: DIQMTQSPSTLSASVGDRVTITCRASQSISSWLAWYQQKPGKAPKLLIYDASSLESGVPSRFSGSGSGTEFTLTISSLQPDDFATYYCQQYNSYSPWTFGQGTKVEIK
notes: source: Expi293F, transfected
B12: 0339-MN3_T65D (antibody, V domains shown)
VH: QVQLQQWGPGLVNPSETLSLTCSVSGGSFATENYYWSWIRQHPGEGLEWIGNIYFSGNDYYNPSLNNRFTISFDTSKNHLSLKLPSVTAADTAVYYCARGTIYFDMSGYRRVDPFHIWGQGTMVIVSS
VL: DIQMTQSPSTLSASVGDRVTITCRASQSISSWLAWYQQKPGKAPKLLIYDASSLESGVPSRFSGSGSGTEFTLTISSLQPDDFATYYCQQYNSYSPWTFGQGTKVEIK
notes: source: Expi293F, transfected
B13: 0389-YN3_T65R (antibody, V domains shown)
VH: QVQLQQWGPGLVNPSETLSLTCSVSGGSFATENYYWSWIRQHPGEGLEWIGNIYFSGNRYYNPSLNNRFTISFDTSKNHLSLKLPSVTAADTAVYYCARGTIYFDYSGYRRVDPFHIWGQGTMVIVSS
VL: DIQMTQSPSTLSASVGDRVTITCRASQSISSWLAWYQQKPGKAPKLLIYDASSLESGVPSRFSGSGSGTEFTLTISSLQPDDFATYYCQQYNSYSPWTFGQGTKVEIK
notes: source: Expi293F, transfected
B14: 0366-N3_T65M (antibody, V domains shown)
VH: QVQLQQWGPGLVNPSETLSLTCSVSGGSFATENYYWSWIRQHPGEGLEWIGNIYFSGNMYYNPSLNNRFTISFDTSKNHLSLKLPSVTAADTAVYYCARGTIYFDRSGYRRVDPFHIWGQGTMVIVSS
VL: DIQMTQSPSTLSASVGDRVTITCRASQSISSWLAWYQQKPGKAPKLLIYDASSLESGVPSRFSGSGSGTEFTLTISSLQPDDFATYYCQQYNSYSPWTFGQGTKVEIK
notes: source: Expi293F, transfected
B15: 0376-YN3_T65A (antibody, V domains shown)
VH: QVQLQQWGPGLVNPSETLSLTCSVSGGSFATENYYWSWIRQHPGEGLEWIGNIYFSGNAYYNPSLNNRFTISFDTSKNHLSLKLPSVTAADTAVYYCARGTIYFDYSGYRRVDPFHIWGQGTMVIVSS
VL: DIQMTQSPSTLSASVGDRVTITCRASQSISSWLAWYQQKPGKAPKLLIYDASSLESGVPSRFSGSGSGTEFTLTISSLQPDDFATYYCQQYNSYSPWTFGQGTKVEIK
notes: source: Expi293F, transfected
B16: 0323-LN3_T65G (antibody, V domains shown)
VH: QVQLQQWGPGLVNPSETLSLTCSVSGGSFATENYYWSWIRQHPGEGLEWIGNIYFSGNGYYNPSLNNRFTISFDTSKNHLSLKLPSVTAADTAVYYCARGTIYFDLSGYRRVDPFHIWGQGTMVIVSS
VL: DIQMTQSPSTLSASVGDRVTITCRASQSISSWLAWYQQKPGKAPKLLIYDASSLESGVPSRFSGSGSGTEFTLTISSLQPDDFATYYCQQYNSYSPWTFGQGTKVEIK
notes: source: Expi293F, transfected
B17: 0321-LN3_T65E (antibody, V domains shown)
VH: QVQLQQWGPGLVNPSETLSLTCSVSGGSFATENYYWSWIRQHPGEGLEWIGNIYFSGNEYYNPSLNNRFTISFDTSKNHLSLKLPSVTAADTAVYYCARGTIYFDLSGYRRVDPFHIWGQGTMVIVSS
VL: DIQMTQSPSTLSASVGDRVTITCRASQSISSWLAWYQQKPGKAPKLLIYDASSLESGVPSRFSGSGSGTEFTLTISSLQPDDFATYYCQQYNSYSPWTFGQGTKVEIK
notes: source: Expi293F, transfected
B18: 0322-LN3_T65F (antibody, V domains shown)
VH: QVQLQQWGPGLVNPSETLSLTCSVSGGSFATENYYWSWIRQHPGEGLEWIGNIYFSGNFYYNPSLNNRFTISFDTSKNHLSLKLPSVTAADTAVYYCARGTIYFDLSGYRRVDPFHIWGQGTMVIVSS
VL: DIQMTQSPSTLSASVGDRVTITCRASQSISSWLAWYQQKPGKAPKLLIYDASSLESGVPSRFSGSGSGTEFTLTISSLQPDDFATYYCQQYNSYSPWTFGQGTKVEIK
notes: source: Expi293F, transfected
B19: 0355-MN3_T65W (antibody, V domains shown)
VH: QVQLQQWGPGLVNPSETLSLTCSVSGGSFATENYYWSWIRQHPGEGLEWIGNIYFSGNWYYNPSLNNRFTISFDTSKNHLSLKLPSVTAADTAVYYCARGTIYFDMSGYRRVDPFHIWGQGTMVIVSS
VL: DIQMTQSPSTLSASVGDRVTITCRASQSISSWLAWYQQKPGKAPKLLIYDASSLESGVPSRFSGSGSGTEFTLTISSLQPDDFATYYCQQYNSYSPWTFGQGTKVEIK
notes: source: Expi293F, transfected
B20: 0336-LN3_T65W (antibody, V domains shown)
VH: QVQLQQWGPGLVNPSETLSLTCSVSGGSFATENYYWSWIRQHPGEGLEWIGNIYFSGNWYYNPSLNNRFTISFDTSKNHLSLKLPSVTAADTAVYYCARGTIYFDLSGYRRVDPFHIWGQGTMVIVSS
VL: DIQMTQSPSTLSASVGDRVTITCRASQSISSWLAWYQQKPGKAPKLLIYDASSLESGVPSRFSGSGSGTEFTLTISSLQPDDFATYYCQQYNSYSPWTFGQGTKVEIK
notes: source: Expi293F, transfected
B21: 0325-LN3_T65I (antibody, V domains shown)
VH: QVQLQQWGPGLVNPSETLSLTCSVSGGSFATENYYWSWIRQHPGEGLEWIGNIYFSGNIYYNPSLNNRFTISFDTSKNHLSLKLPSVTAADTAVYYCARGTIYFDLSGYRRVDPFHIWGQGTMVIVSS
VL: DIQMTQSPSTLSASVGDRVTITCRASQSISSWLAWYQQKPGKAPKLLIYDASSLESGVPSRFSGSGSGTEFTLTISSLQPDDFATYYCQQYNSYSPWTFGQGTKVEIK
notes: source: Expi293F, transfected

Target: D614G-Hexapro (WT) spike ectodomain (SARS-CoV-2 Wuhan-Hu-1 D614G, D614G)
Assay: BLI

Row | Binder | Kd | koff | kon
1 | B1 | 45.4 nM | 0.000221 s⁻¹ | 4880 M⁻¹ s⁻¹
2 | B2 | 52.9 nM | 0.000253 s⁻¹ | 4790 M⁻¹ s⁻¹
3 | B3 | 549 nM | 0.000177 s⁻¹ | 323 M⁻¹ s⁻¹
4 | B4 | 7760 nM | 0.000643 s⁻¹ | 82.8 M⁻¹ s⁻¹
5 | B5 | 2.99 nM | 0.00124 s⁻¹ | 415000 M⁻¹ s⁻¹
6 | B6 | 387 nM | 0.000123 s⁻¹ | 318 M⁻¹ s⁻¹
7 | B7 | 0.562 nM | 0.000124 s⁻¹ | 221000 M⁻¹ s⁻¹
8 | B8 | 4.26 nM | 0.000957 s⁻¹ | 225000 M⁻¹ s⁻¹
9 | B9 | – | – | 265 M⁻¹ s⁻¹
10 | B10 | 226 nM | 0.000716 s⁻¹ | 3160 M⁻¹ s⁻¹
11 | B11 | 189 nM | 0.000535 s⁻¹ | 2840 M⁻¹ s⁻¹
12 | B12 | 5.95 nM | 2e-05 s⁻¹ | 3350 M⁻¹ s⁻¹
13 | B13 | 839 nM | 0.00107 s⁻¹ | 1280 M⁻¹ s⁻¹
14 | B14 | 8.15 nM | 2.08e-06 s⁻¹ | 255 M⁻¹ s⁻¹
15 | B15 | 1.82 nM | 0.000425 s⁻¹ | 233000 M⁻¹ s⁻¹
16 | B16 | 145 nM | 0.000932 s⁻¹ | 6420 M⁻¹ s⁻¹
17 | B17 | 378 nM | 0.00157 s⁻¹ | 4150 M⁻¹ s⁻¹
18 | B18 | 2.52 nM | 0.000726 s⁻¹ | 288000 M⁻¹ s⁻¹
19 | B19 | 0.474 nM | 0.00041 s⁻¹ | 865000 M⁻¹ s⁻¹
20 | B20 | 0.15 nM | 0.000117 s⁻¹ | 782000 M⁻¹ s⁻¹
21 | B21 | 6.57 nM | 0.00131 s⁻¹ | 199000 M⁻¹ s⁻¹
